Data on eleven sequences can be found in a protein production outcome set (Wang et al. 2014).

The data set can be described thus: label from the status in PepcDB records.
With “MIYRFTIISDEVDDFVREIQIDPEATFFDLHEAILKAANYTNDQMTSFFICDDDWEKEKEITLEEMDNNPEMDSWIMKETRLNELIEDEKQKLLYVFDYMTERCFFIELSEIITGKEIKGAKCTKKSGEAPKQTVDFEEMAAGGGSLDLDENFYGDQDFDMEDFDAEGFDVNDGAAGGGSSYDEDKFLEHHHHHH”, the protein production entry is recorded as “not failed”. For the sequence “MIYRKATEKDIAQLVELRKKQLEDEGIAPINNIDTELTHFFELSFKKNSFISWISEEDNEIIATSGVCFYKYPPSYLNPSGKVAYITNMYTKYEYRSRGIALALLKLVILEAKKRDYLFLRLHASDMGRPIYEEIGFKPFDDFMEMNLSLNRNGELEHHHHHH”, the protein production entry is “not failed”. Take “MIYWGMGMLVIAWLADGGISRLSDLIKEPLALGVLLFCGVWVLGLLWSDSAVIFQGKWRKYFILLTFIPLFSLLSRERLPWVTGALLCSYLGMVILGSYQWAMQEMQGISLLGMSYLHYSAALGIGVILAVFLGWETLSREKRWLSVLSWLIAILLLFLQFNQSARGILLATLMALLLMIVLRYRAEWRMLTGGLTAIMAMVILFATSSDIFHDRLQQAGTDLRSFQQGDYQTSVGYRLAMWDVGLHGIAEHPLLGHGSGMAKKYFDDSIITYKQGIYRNLPEFQETAHFHNELIEIGMHLGLLGILAFVFLLWCWFQIFRQNRMALLGSAIVCFICISGLTDTFLLYSGTPPFLLTVTAIAVCWRKYREDPDRIGQKYTSGERNGNQNPQMFLMSA”: the protein production entry is reported as “failed”. For the sequence “MKAESSNESFIIGQRVHSLNDSRRVGTVKYVGDVEGYSGTWIGVDWDQDGDGKHNGSVNGVFYFNGRSQSSASFVRSQNLSRGITLLQALELRYRTISTKDEEDEMYVLSAGNRRVSIQLLGGDKIQDKLSRFEELTSASLSYLGVSSLGVSSDLGSILPNLKLLDLTGNLISDWEEIGALCEQLPALTTLNLSCNSLSSDIKSLPQLKNIRVLVLNNSGLSWTQVEILRRSLPGIEELHLMGNMISTITSTSSSDDQAFNSLRLLNLDDNCISDWSEVLKLSQLPCLEQLYLNKNKLSRIFQSVNGTESSEKGSDPFPSLSCLLLGANNIGDLASVDALNGFPQLVDIRLSENPISDPVRGGVPRFVLVARLTKVQVLNGSEVRAREKKDSEIRYVRMVMSKLNDKSGEIELLHPRFYELKKLHGIEDERASAENSGPKNIASGLISITLKCVGPSMGEKPHLTKKLPGSITVGKLKILSENFFKLKSIKPRLFLQEEGSPFPTALDDETATLLDVGICDGSTLLVDEES”, the protein production entry is reported as “failed”.

“MKAGLIMRHDVMSILHAFCMIAENHSFTRAAAQLHISTSALSQNMRQLEDELGVKLLNRTTRRVGLTEAGHAFLASIRPALAHIDEAMEHARQSRDIPGGTLRLTVPRTAATLLLQPNLAGFMRDYPDIRLDIDVNDGFVDLINERFDAGIRFGDAVQLDMNVVPLGDVLRPAIVASPAYLARFGTPLHPQELINHRCLCHRFTRESGLYRWEFVHGAQRLEITPEAALMVNDKALRLSAARDGAGLTYVFEQDVHEDLQDGRLCSVLEEWLPAADRFYLYYPGRAHMAPKLRVFIDYFCHKAILPSQQSHHR”: the protein production result is recorded as “failed”. For the sequence “MKALMVFMTTAENGSFSDAARKLGVSPAAISQSIARLEQELEVRLFNRTTRQLTLTEDGRRFYAQCRGPVNNLDSAINQLKASRDEPAGHLRVSMPNSFGRRFILPIMGEFCERYPKVRVFFGLDDHFSDLIEDGYDVGVRTGMMPDSRMVARNLAQMPLYVVASPEYWDQHGRPSSPEELSGYDCINFQFPTSGRLFKWEFDRKGERIPLEVNGTYTLNDMEAVAELARLGMGVAQLPGHEVVHLIRSGELEPVLTDMVSLERSIYICFPHRDHIAPRTRVFVDFVVEKLADHPDIMADLPGLDLSAKRSALQQSVGVL”, the protein production entry is “failed”. On to “MKANFGYITPVPLNMELIDISLSKTQKRTPTVIHPQYNIVKIRMFYMRKVKHAGNEFASRLGTILTDFPRIEDIHPFYGDLINVLYDRDHYKLALGHVNAAKNGIEKVSKEFVKLLKFADSLYRCKQLKRAALGRMASAAKKLGKTLEYLEEVRMHMSRLPSIDLSGRTLLVCGFPNVGKSSFVRKISRADVEVQPYPFTTKSLYVGHFDYKYLQWQVIDTPGILDQPLENRNTIEMLSITALAHIKAVVLYFIDLSETCGYSVEEQMDLFNTLNPLLSSNMVIVLSKSDVLGLSGMEDKKAIMSFLEGKKYMEMSCEKEENIDAVKAMACDLLLDERFERKINSERLSEYINRITIVRPKELREKAESFICSREVTEIENEQERYLIPEEYRYDIVPEIVDGKNVADFFDPDIEKKLKEVEEEEEGLLPMYCKTYDVLSPEERALKEEVVAGIERRRIINRLREKKRLPDSWKHRSRNSGGDIAVHVRRDSKTQVAQPPRLPSKKKARFDDKHYYDRKPKHLYRGRK”, for which the protein production entry is reported as “failed”. To “MKAQYFFWILFLIGFYWMIYLYQDFLMDALIAGLLCVGFFQVKVFLDKRFFNVVSSFLCVLILASVLIVPLYFIVYKSSNIIFEINFEKFSALIKWLKGIITENLSHFPTIHDGASKFLENFSAASITGYLLKISSYVGRYSLKLITDALFILGLLFFFFYYGERFYRYFLGVLPLGMNQSKKIFEEVAGILRIVLLTSLITVILEGVAFGVMIVWFGHDGWSLGILYGLASLVPAVGGALIWIPIAIYELYHGNVNEAIFIALYSILLISVLIDSVIKPILIVFIKKRIFKTTLKINEMLIFFSMIAGISQFGFWGIIVGPTITAFFIALLRLYENYFIQNEQKACE” belongs “failed”; to “MKAYPYIFLLLISSSLAASQEDKLYEAARSALNDNKYSEALIHVKNILKISPEHLASNILIAEILLADGSASAAEASLTKAVSLGANKKQLRLLFAESYIMQGQYNKTLDYLPEQTNDDKLAAKIYVLRGDAHLGLRQLKLSQNDYNTALAFDAKNIDAKLGLAQIAVNYFQFHQAEKLVDEVLSGYIPPIKAWNLKASIQQSLGNNELALNAINQALLIDKNNIQSLIFASTINIELQQFELAEKYADTVLEQVPNEPKAEFIKAMVQVRKNENAGFESAIETVAQVLDHLSEDVLRSNPSYYYLASIILFHQQKHEAARQYIDDYLLIDENNINALTLAATIELVEKKPMQAKTLLSRANFLDPDNPKILSMLGMTYLELRQYEKAHFYLAKVKELKPNLGIADTQLAQSYLATGKPEKAIKHLLTASAAEYDPTVVGLLLVESYIKSGKMNKGISVAKNLAENMPDNANIQHHLGYIYQISGEIEKAKHQFEQALIIEPNHAKSIISLANLDYQKGNADIAIDRLKAALIISANDIDLITALAKFYNRTNNSAASVILLEEPFKLDNQNEELLKNLIVSYVGDKQLMLAIETLNTYLLNQRKTVELYLMLASLQIMNSDVNSAVSAYKSAIKQDGDKGTIYLLIAHAYQRFSKVPEAITAYKKSMAWDGDNDKAIIGLAQLYNAENDTDSAIKLIKSFEVNHQLSAQLVEVLANSYLRINQYKLAEMYYKKRIKLASNDSSVVGLNLIYRATKRTSKAVDLLTTSLNDRPNSLFLNTALAELYIDQSQWLNADKIYQTLVQLYPKQPAILNNASYVALNLSDYPRAEALVKRSLALVDNQPDSLDTLGWVYYHTKEFNKALPLFRKALAINNSNPAVKYHLALTLKALNRDKEAIKLMVDVVNSDYSQKADADVLLKQWLK”, “failed”; to “MKDAKSFNDLYKASIYTMLGSIYAPSGGVIAAPTTSLPEVEGGKRNWDYRFAWVRDSSIIAEALLEAGSIVEARRIINFLLSLINFSSKPFYYPLYTIEGTIPPPERELRWLSGYKNSKPVRIGNGASSQIQLDIEGFFISALYKYVKMTNDQVFLKDVFSKVKYIGDWISENWSLKDSGIWEDRGSPQHYTHSKIMMWIALDKIGKLANLIGYADIWAKEREKLRNWIFTNCVKNNYFIRYCGNTDDVDSSLLSAPLYGFIEVSDSTFINTLTKIENDLKTDVFVKRYKTDFMGEAKHPFLLTTVWLARVYMRLGKIDSAIEILNKINKVSRELHLVGEHVDVEKGEFTGNFPQIFVHAQLVIAIKELNDTLEHHHHHH”, “failed”. As to “MKDFFKDQFFKALEKNTIFSRADVQGNLIFVSDKLCQISGYSKKELIGKKHSIFKHPDVEECYIEELLKKLSYKKPYQVIFKNIDKLGKTFYLETLLIPILDKNNELIEIVAFSHDVSNSFKLNEELALNHAKLRELSINLENTVKNHQQEFIQLGKKFEKKMQIALEKNEKDIKIAYEEILKSSLEQMISDIAHQWRQPLNELGIAMFQMKQNLKDEKGFAEIYSQSKDMIKNMSETIDVFRTLFNKGVEQCVFIKETLNKALEIAFETIEKNHVNINIVSKSDYEVLAYENGLIRVFLNLILNSIEAFKNKKRKIITINFSKFGKNYLKITIKDNAGGIDKENLDKIFQPYFTTKHPSQGIGVGLYISRQIIESFQGKIKVKNGKDGACFEIFLKLKERVE”, the protein production result is reported as “failed”.
